Results: paper PMC5218472 (PLoS Biology, 2017)

System: ADAM17
Assay: PMA-induced ADAM17-mediated IL-6R ectodomain shedding in transiently transfected HEK293 cells, sIL-6R ELISA
Type: cell-based, human
Conditions: for increase of sIL-6R after PMA (unstimulated = 1), mean: 100 nM PMA 2 h vs DMSO
From the text: Fig 4 Mutation of Val-356 is sufficient to block proteolysis of the IL-6R and the Asp358Ala variant. (A) Amino-acid residues from Asp-340 to Ala-370 of the human IL-6R. The identified cleavage site between Pro-355 (P1) and Val-356 (P1′) is indicated. (B) Overview of the six different IL-6R cleavage site mutants. Mutations are colored in either green or blue; the amino-acid residues of the wild-type cleavage site are shown in red. (C) HEK293 cells were transiently transfected with expression plasmids encoding the wild-type IL-6R (PV) or the double mutants (IE, DG) as indicated. Cells were either treated with 100 nM PMA for 2 h or DMSO as vehicle control. sIL-6R was precipitated from the supernatant with concanavalin A-covered sepharose beads, and the cells were lysed. Both were analyzed via western blot, and β-actin served as the loading control. One out of three experiments with similar outcomes is shown. (D, E) The experiment was performed as described under (C), but sIL-6R generation was analyzed via ELISA. In (D), the amount of sIL-6R generated after PMA stimulation of the wild-type IL-6R (PV) was set to 100%, and all other values were calculated accordingly. In (E), the amount of sIL-6R without stimulation was considered as constitutive shedding and set to 1, and the increase of sIL-6R was calculated. Data shown are the mean ± SD from at least three independent experiments (*p < 0.05, ns = no significant difference). (F–H) HEK293 cells were transiently transfected with expression plasmids encoding the wild-type IL-6R (PV) or the single mutants (DV, IV, PE, PG) as indicated. The experiments were performed as described in (C) to (E). (I) Overview of the four different IL-6R cleavage site mutants of the IL-6R Asp358Ala variant. Mutations are colored in either green or blue, the amino-acid residues of the wild-type cleavage site are shown in red, and the Asp358Ala single nucleotide polymorphism (SNP) is colored in orange. (J) ADAM17-mediated proteolysis of the IL-6R variants depicted in (I) were analyzed as described in (D). (K–M) Equal numbers of Ba/F3-gp130 cells were incubated for 48 h with increasing amounts (0–100 ng/ml) of either IL-6 or Hyper-IL-6. The stably transduced IL-6R variant is indicated above the diagram. One representative experiment out of three performed is shown (mean ± SD, biological triplicates).
Analysis of IL-6R ectodomain shedding in transiently transfected HEK293 cells or stably transduced Ba/F3-gp130 cell lines by ADAM10 and ADAM17 has been described elsewhere. Analysis of IL-6R proteolysis by CG has been described previously.
The sandwich ELISA, which detects sIL-6R as well as ds-sIL-6R (4-11/Baf227 antibodies) and can be used to quantify total sIL-6R serum levels, was described previously. To specifically detect ds-sIL-6R (either recombinant or in human serum), a similar approach was used (ds6R/Baf227). Both sandwich ELISAs were performed with streptavidin-horseradish peroxidase (R&D Systems, Minneapolis, Minnesota, US) and the peroxidase substrate BM blue POD (Roche, Mannheim, Germany). The enzymatic reaction was stopped by addition of 1.8 M sulfuric acid, and the absorbance read at 450 nm on a Tecan rainbow reader (Tecan, Crailsheim, Germany).

B1: PV: wild-type human IL-6R, cleavage site Pro-355/Val-356 (protein)
chain: LAPRRCPAQEVARGVLTSLPGDSVTLTCPGVEPEDNATVHWVLRKPAAGSHPSRWAGMGRRLLLRSVQLHDSGNYSCYRAGRPAGTVHLLVDVPPEEPQLSCFRKSPLSNVVCEWGPRSTPSLTTKAVLLVRKFQNSPAEDFQEPCQYSQESQKFSCQLAVPEGDSSFYIVSMCVASSVGSKFSKTQTFQGCGILQPDPPANITVTAVARNPRWLSVTWQDPHSWNSSFYRLRFELRYRAERSKTFTTWMVKDLQHHCVIHDAWSGLRHVVQLRAQEEFGQGEWSEWSPEAMGTPWTESRSPPAENEVSTPMQALTTNKDDDNILFRDSANATSLPVQDSSSVPLPTFLVAGGSLAFGTLLCIAIVLRFKKTWKLRALKEGKTSMHPPYSLGQLVPERPRPTPVLVPLISPPVSPSSLGSDNTSSHNRPDARDPRSPYDISNTDYFFPR
modifications: N-linked glycans at Asn-55, Asn-93, Asn-221, Asn-245 and Asn-350, O-linked glycan at Thr-352 (mapped on sIL-6R shed from transfected HEK293 cells)
100 nM PMA 2 h, HEK293, ELISA, mean ± SD
  increase in sIL-6R generation compared to vehicle-treated cells: 3.6 ± 1.9 fold
Fig 4D, 100 nM PMA, 2 h, mean of at least 3 independent experiments
  sIL-6R in supernatant (PMA-stimulated PV = 100%), mean: 100%
Fig 4D, DMSO vehicle, 2 h (constitutive shedding), mean of at least 3 independent experiments
  sIL-6R in supernatant (PMA-stimulated PV = 100%), mean: 34.05%
Fig 4E, mean
  increase of sIL-6R after PMA (unstimulated = 1), mean: 3.59 fold
Fig 4G, 100 nM PMA, 2 h, mean of 3
  sIL-6R in supernatant (PMA-stimulated PV = 100%), mean: 100%
Fig 4G, DMSO, 2 h, mean of 3
  sIL-6R in supernatant (PMA-stimulated PV = 100%), mean: 36.7867%
Fig 4H, mean of 3
  increase of sIL-6R after PMA (unstimulated = 1), mean: 2.73 fold
